Substitutions are numbered along the chain they refer to. In names and notes the source's numbering stands.
B1: h3G10.1.91.A58B: humanized anti-CXCR4 antibody; VH h3G10.1.91 SEQ ID NO:33, VL h3G10.A58B SEQ ID NO:73 (antibody, V domains shown)
VH: EVQLVESGGGLVQPGGSLRLSCAASGFTFSDYYMSWVRQAPGKGLEWVGFIRHKANFETTEYSTSVKGRFTISRDDSKNSLYLQMNSLKTEDTAVYYCARDLPGFAYWGQGTLVTVSS
VL: DIVMTQSPDSLAVSLGERATINCKSSQSLFNSHTRKNYLAWYQQKPGQPPKLLIYWASARGSGVPDRFSGSGSGTDFTLTISSLQAEDVAVYYCKQSFNLRTFGGGTKVEIK
B2: h3G10.B44 VH/h3G10.B12 VL: Fab; VH SEQ ID NO:25, VL B12 (probably B12A, SEQ ID NO:61) (antibody, V domains shown)
VH: B1 VH with G49S, E58Y, D76N, S80T, K89R, T90A, R100K
VL: B1 VL with H33R, A40L, G61E, N99R
B3: h3G10.B44 VH/h3G10.A11 VL: Fab; VH SEQ ID NO:25, VL A11 (probably A11A, SEQ ID NO:51) (antibody, V domains shown)
VH: B1 VH with G49S, E58Y, D76N, S80T, K89R, T90A, R100K
VL: B1 VL with S26A, H33R, G61E, N99R
modifications: Fab

Columns and labels:
Ramos cells = assay: Cell-death induction in Ramos cells (Annexin V/PI); format: cell-based, human; conditions: positive control, 24 hrs, untreated cells approximately 30%
Experimental: Anti-CXCR4 antibodies were examined for the ability to induce cell-death in the human Non-Hodgkin's Lymphoma Ramos cell line. Cells were cultured to sub-confluency in RPMI 1640 media containing 10% fetal bovine serum and […] Glutamine at 37° C. in a CO2 incubator. Cells were seeded in growth media in a 48-well plates at 2.5×10^6 cells/mL. Anti-CXCR4 antibodies, diluted in PBS to concentrations indicated, were added to the cells and incubated for 24 hrs at 37° C. Cell-death was measured by Annexin V-PE and propidium iodide (PI) fluorescent signal measured in a LSRII Flow Cytometer (BD Biosciences). Total cell-death was determined by adding the Annexin V+/PI+(late) population with the Annexin V+/PI-(early) population.
The Fab is a single chain antibody (monovalent) and contains the immunoglobulin variable regions which are part of the antigen-binding site and the first immunoglogulin constant region. This fragment was obtained by digestion of the 3G10 antibody with the proteolytic enzyme papain. The F(ab′)2 was generated by pepsin digestion to remove most of the Fc region while leaving intact some of the hinge region. F(ab′)2 fragments have two antigen-binding Fab portions linked together by disulfide bonds, and therefore are bivalent.

OPM-2-Luc MM cells = assay: Systemic OPM-2-Luc multiple myeloma model; format: in vivo, mouse
Experimental: Humanized anti-CXCR4 antibody h3G10.1.91.A58B was tested for its ability to increase survival and reduce tumor burden of NSG mice using a disseminated/systemic intravenous model of MM. The human MM cancer line OPM-2 was transduced with the luciferase gene (OPM-2-LUC) to allow for “in life” monitoring of tumor burden over time. Cells were cultured at 37° C. in a 5% CO2 incubator in RPMI 1640 media containing 10% fetal bovine serum with 0.5 μg/mL puromycin for luciferase expression selection. 4-6 week old NSG female mice were injected intravenously with OPM-2-Luc cells (5×10^6/animal).
On Day 8 post-cell implantation mice were randomized into three treatment groups (10 animals per group) based on total body bioluminescence intensity. Weekly subcutaneous (s.c.) antibody treatment at 10 mg/kg in a solution of sterile PBS was initiated and carried out for 5 weeks. Melphalan, one of the approved drugs for treatment of multiple myeloma patients, was dosed at 1 mg/kg, twice/week carried out for 3 weeks. Tumor burden was assessed using Xenogen IVIS 200 imaging system. Mice were imaged every 7 days in a ventral position and whole body bioluminescence was determined using Xenogen Living Image software. When mice began to show hind limb paralysis or reached other humane endpoints they were euthanized. Both tumor burden (by bioluminescence) and survival were evaluated as endpoints.

JVM-13-Luc cells = assay: Systemic JVM-13-Luc CLL model; format: in vivo, mouse; conditions: 10 mg/kg s.c. once a week
Experimental: Anti-tumor activity of CXCR4 antibody was further investigated in a disseminated intravenous Chronic Lymphocytic Leukemia (CLL) model. The human JVM-13 tumor cell line stably transfected to express the luciferase gene was cultured at 37° C. in a 5% CO2 incubator in RPMI 1640 media containing 10% fetal bovine serum and […] Puromycin. The model was established by injecting 1×10^6 JVM-13-Luc cells into female 6-8 week old SCID Beige mice via tail vein. 21 days post-cell implantation mice were assigned into treatment groups (10 animals per group) based on bioluminescence (BLI) reading. […] Rituximab, an anti-CD20 Ab, approved for treatment of CLL patients, was used as positive control. Rituximab was dosed at 10 mg/kg in a solution of sterile PBS once a week, s.c. Tumor burden was assessed using Xenogen IVIS 200 imaging system. Mice were imaged every 7 days in a ventral position and whole body bioluminescence was determined using Xenogen Living Image software. When mice began to show hind limb paralysis or reached other humane endpoints they were euthanized. Both tumor burden (by bioluminescence) and survival were evaluated as endpoints.

[1] = molecular target: T1, CXCR4 (CXCR4-expressing HPB-ALL cells) (Homo sapiens, UniProt P61073); assay: Flow cytometry binding of humanized 3G10 Fabs to HPB-ALL cells (Example 2); conditions: for MFI 0.25 μg/ml: Fab 0.25 μg/ml; for MFI 2.5 μg/ml: Fab 2.5 μg/ml
T1 construct: endogenous in cells; host or cells: HPB-ALL (human T cell leukemia)
Experimental: 150,000 cells were incubated with various h3G10 Fabs at either 2.5 or 0.25 μg/mL in 100 uL binding buffer (PBS+0.5% BSA), followed by incubation with APC-conjugated goat anti-human Fab-specific secondary antibody from R&D systems.

[2] = NSG mice, OPM-2-Luc i.v., antibody 10 mg/kg s.c. weekly for 5 weeks, Melphalan 1 mg/kg twice/week for 3 weeks
[3] = antibody 10 mg/kg s.c. weekly 5 weeks, Melphalan 1 mg/kg twice/week 3 weeks, isotype control 33.5 days

T1 sequence (P61073 whole entry): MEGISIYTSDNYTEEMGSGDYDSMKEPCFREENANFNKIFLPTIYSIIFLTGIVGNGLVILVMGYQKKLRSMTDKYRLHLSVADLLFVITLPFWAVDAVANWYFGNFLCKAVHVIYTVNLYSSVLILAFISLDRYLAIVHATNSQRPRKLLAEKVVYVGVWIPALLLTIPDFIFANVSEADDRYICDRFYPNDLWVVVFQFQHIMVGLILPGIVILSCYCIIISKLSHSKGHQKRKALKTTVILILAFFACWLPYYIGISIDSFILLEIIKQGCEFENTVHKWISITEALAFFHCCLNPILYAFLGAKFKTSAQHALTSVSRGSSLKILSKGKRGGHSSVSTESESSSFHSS

| Molecule | median survival (OPM-2-Luc MM cells; [2]) | median survival (OPM-2-Luc MM cells; [3]) | MFI 0.25 μg/ml [1] | MFI 2.5 μg/ml [1] | further results |
| --- | --- | --- | --- | --- | --- |
| CN[C@@H]1C[C@H]2O[C@@](C)([C@@H]1OC)n1c3ccccc3c3c4c(c5c6ccccc6n2c5c31)C(=O)NC4 [Staurosporin, reference compound] | – | – | – | – | cell-death (Ramos cells): approximately 60% |
| N[C@@H](Cc1ccc(N(CCCl)CCCl)cc1)C(=O)O [Melphalan, reference compound] | 36 days | 36 days | – | – | – |
| Rituximab: anti-CD20 Ab, approved for treatment of CLL patients, used as positive control [reference compound] | – | – | – | – | tumor burden (luminescence) compared to isotype control antibody (JVM-13-Luc cells; from 21 days post-implantation): significantly reduced tumor burden; median survival (JVM-13-Luc cells; isotype control 32.5 days): 45 days; survival compared to isotype control Ab (JVM-13-Luc cells; p<0.0001): Significant increase in survival |
| B1 | Undefined | undefined | – | – | tumor growth (bioluminescence) compared to isotype control antibody (OPM-2-Luc MM cells; 10 mg/kg s.c. weekly for 5 weeks, p<0.0001 on Day 30): significantly inhibited tumor growth |
| B2 | – | – | 2094 | 8127 | – |
| B3 | – | – | 3792 | 8306 | – |

From US10927178B2, “Anti-CXCR4 antibodies and antibody-drug conjugates” (PFIZER INC., priority 2013, dated 2021)
